Laboratory results from patent US11491206 (DUKE UNIVERSITY, dated 2022).

Molecular target: T1, death receptor 5 (DR5) (UniProt O14763 56-182, limits assumed)
T1 construct: also called TRAIL Receptor 2; TRAILR2
Experiment: not stated (told in the legend of the schematic FIG. 1A)

T1 sequence (O14763 56-182 limits assumed): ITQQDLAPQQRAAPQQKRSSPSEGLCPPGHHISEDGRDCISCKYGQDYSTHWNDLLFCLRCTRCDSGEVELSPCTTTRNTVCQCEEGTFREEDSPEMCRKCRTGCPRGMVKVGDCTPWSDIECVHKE

B1: DRA monomer (single Tn3 type III fibronectin domain of tenascin engineered to bind death receptor 5) (designed binder)
chain: GAIEVKDVTDTTALITWAKPWVDPPPLWGCELTYGIKDVPGDRTTIDLQQKHTAYSIGNLKPDTEYEVSLICFDPYGMRSKPAKETFTT
notes: also called Tn3 monomer; monomer of the Tn3 domain
B1 showed a Kd of 43 nM.
